In this assay the target is human serum albumin (Albuminar, Aventis) (human), P02768. Description: SPR (BIACORE 3000), serum albumin immobilised on CM5 chip, analyte injected; Req divided by molecular weight; reference GnRH-Fc. Background: Surface plasmon resonance follows binding to a sensor surface in real time, without labels.

QHWSYGLRPG (peptide, UniProt P01148 24-33, looked up, modifications not checked) [GnRH peptide (gonadotropin releasing hormone), P01148 24-33]: the fold more bound (Req/MW) than GnRH-Fc is over 5 times.
